# Substitutions are numbered along the chain they refer to.
# T1: human FcγRIIA on cells (human, UniProt P12318 34-317)
# T1 construct: whole, on cells; also called hFcγRIIA; FcγRIIA^+ve CHO
# T1 sequence (looked up): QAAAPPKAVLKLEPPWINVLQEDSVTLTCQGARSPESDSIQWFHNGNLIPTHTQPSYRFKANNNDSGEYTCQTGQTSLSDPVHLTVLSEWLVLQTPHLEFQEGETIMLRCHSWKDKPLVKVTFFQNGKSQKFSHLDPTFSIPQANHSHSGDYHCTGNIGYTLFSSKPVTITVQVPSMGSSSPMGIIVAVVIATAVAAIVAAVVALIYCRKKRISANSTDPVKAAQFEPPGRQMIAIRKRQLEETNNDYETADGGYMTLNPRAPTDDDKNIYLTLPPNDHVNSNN
# T2: human FcγRIIB on cells (human, UniProt P31994 43-310)
# T2 construct: whole, on cells; also called hFcγRIIB; CD32B
# T2 sequence (looked up): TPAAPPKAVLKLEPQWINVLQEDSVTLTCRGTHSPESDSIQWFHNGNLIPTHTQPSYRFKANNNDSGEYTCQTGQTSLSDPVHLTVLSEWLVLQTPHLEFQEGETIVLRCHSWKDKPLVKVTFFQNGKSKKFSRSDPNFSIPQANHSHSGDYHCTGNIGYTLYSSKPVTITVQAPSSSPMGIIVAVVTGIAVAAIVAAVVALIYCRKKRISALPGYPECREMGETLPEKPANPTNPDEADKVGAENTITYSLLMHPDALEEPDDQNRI
# T3: Soluble hFcγRIIB (R & D Systems) (human, UniProt P31994 46-217)
# T3 construct: Bought reagent; also called hFcγRIIB fusion protein
# T3 sequence (looked up): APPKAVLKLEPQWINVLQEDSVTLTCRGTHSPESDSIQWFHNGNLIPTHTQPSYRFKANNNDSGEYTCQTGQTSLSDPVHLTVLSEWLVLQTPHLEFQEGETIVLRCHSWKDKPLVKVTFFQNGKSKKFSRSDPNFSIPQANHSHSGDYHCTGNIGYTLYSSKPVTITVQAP
# T4: cynomolgus monkey FcγRIIB (cynomolgus monkey, UniProt A0A140HDP4 43-312)
# T4 construct: whole, on cells; also called FcγRIIB in other species
# T4 sequence: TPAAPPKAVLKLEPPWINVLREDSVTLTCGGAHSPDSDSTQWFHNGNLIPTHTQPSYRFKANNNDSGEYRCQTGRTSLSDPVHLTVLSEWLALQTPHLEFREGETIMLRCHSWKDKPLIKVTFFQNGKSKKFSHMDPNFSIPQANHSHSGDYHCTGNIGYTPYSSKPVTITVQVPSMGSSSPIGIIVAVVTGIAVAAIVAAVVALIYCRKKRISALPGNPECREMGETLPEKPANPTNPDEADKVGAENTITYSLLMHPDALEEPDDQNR
# T5: mouse FcγRIIB (mouse, UniProt P08101 30-330)
# T5 construct: whole, on cells; also called mFcγRII; FcγRIIB in other species
# T5 sequence (looked up): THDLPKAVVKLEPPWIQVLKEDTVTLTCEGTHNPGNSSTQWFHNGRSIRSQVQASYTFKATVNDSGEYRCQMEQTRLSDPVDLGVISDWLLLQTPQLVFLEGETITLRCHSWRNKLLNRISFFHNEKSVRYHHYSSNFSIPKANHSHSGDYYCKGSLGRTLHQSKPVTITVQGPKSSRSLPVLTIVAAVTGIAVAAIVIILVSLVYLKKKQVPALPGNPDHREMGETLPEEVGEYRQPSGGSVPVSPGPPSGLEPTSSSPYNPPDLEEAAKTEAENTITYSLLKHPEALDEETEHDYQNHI
# T6: rat FcγRIIB (rat, UniProt A0A0G2K9R6 42-295)
# T6 construct: also called FcγRIIB in other species
# T6 sequence: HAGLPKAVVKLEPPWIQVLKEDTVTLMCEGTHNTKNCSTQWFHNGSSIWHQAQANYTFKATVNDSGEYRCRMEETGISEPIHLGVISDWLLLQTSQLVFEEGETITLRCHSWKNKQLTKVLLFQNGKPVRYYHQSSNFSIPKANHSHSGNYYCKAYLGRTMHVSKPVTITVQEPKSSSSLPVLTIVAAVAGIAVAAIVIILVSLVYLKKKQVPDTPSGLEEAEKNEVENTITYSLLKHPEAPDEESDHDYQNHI
# B1: 6A09 (antibody, human IgG1, V domains shown)
# VH: EVQLLESGGGLVQPGGSLRLSCAASGFTFSSYGMHWVRQAPGKGLEWVAVTSYDGNTKYYANSVKGRFTISRDNSKNTLYLQMNSLRAEDTAVYYCAREDCGGDCFDYWGQGTLVTVSS
# VL: QSVLTQPPSASGTPGQRVTISCTGSSSNIGAGYDVHWYQQLPGTAPKLLIYGNSNRPSGVPDRFSGSKSGTSASLAISGLRSEDEADYYCAAWDDSLNEGVFGGGTKLTVLG
# notes: hFcγRIIB mAb said to be likely dual-specific for hFcγRIIA and B; human IgG1 (WT); Only VH/VL tied to the clone; also called Antibody clone: 6A09
# B2: 1E05 (antibody, human IgG1, V domains shown)
# VH: EVQLLESGGGLVQPGGSLRLSCAASGFTFSTYAMNWVRQVPGKGLEWVAVISYDGSNKNYVDSVKGRFTISRDNSKNTLYLQMNSLRAEDTAVYYCARNFDNSGYAIPDAFDIWGQGTLVTVSS
# VL: B1 VL with G52D, S54N, N55S, N98G, E99G, G100P
# notes: Only VH/VL tied to the clone; also called Antibody clone: 1E05
# B3: 6G11 (antibody, human IgG1, V domains shown)
# VH: EVQLLESGGGLVQPGGSLRLSCAASGFTFSSYGMHWVRQAPGKGLEWMAVISYDGSNKYYADSVKGRFTISRDNSKNTLYLQMNSLRAEDTAVYYCARELYDAFDIWGQGTLVTVSS
# VL: B1 VL with G52A, N53D, S54D, N55H, A92S, L97Q, N98R, E99A, G100V, V101I
# notes: Lead antagonistic hFcγRIIB mAb, human IgG1 (WT); Only VH/VL tied to the clone; also called Antibody clone: 6G11; WT 6G11
# B4: 6G08 (antibody, human IgG1, V domains shown)
# VH: EVQLLESGGGLVQPGGSLRLSCAASGFTLSSYGISWVRQAPGKGLEWVSGISGSGGNTYYADSVKGRFTISRDNSKNTLYLQMNSLRAEDTAVYYCASSVGAYANDAFDIWGQGTLVTVSS
# VL: B1 VL with N53D, S54T, E99G, G100P
# notes: hFcγRIIB mAb (agonistic), human IgG1 (WT); Only VH/VL tied to the clone; also called Antibody clone: 6G08
# B5: 5C04 (antibody, human IgG1, V domains shown)
# VH: B3 VH with S31N, M48V, L100W, Y101R
# VL: QSVLTQPPSASGTPGQRVTISCTGSSSNIGAGYDVHWYQQLPGTAPKLLIYSDNQRPSGVPDRFSGSKSGTSASLAISGLRSEDEADYYCAAWDDSLSGSWVFGGGTKLTVLG
# notes: hFcγRIIB mAb, human IgG1 (WT); Only VH/VL tied to the clone; also called Antibody clone: 5C04
# B6: 5G08 (antibody, human IgG1, V domains shown)
# VH: EVQLLESGGGLVQPGGSLRLSCAASGFTFNNYGMHWVRQAPGKGLEWVAVISYDGSNRYYADSVKGRFTMSRDNSKNTLYLQMNSLRAEDTAVYYCARDRWNGMDVWGQGTLVTVSS
# VL: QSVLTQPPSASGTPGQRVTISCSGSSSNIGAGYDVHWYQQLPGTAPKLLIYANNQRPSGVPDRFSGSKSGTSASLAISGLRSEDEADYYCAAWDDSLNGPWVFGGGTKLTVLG
# notes: hFcγRIIB mAb, human IgG1 (WT); Only VH/VL tied to the clone; also called Antibody clone: 5G08
# B7: 5C05 (antibody, human IgG1, V domains shown)
# VH: B3 VH with S31T, M48V, L100N, Y101F, I106V
# VL: B5 VL with D53N, N54S, S98N, S100Q, W101V
# notes: hFcγRIIB mAb, human IgG1 (WT); Only VH/VL tied to the clone; also called Antibody clone: 5C05
# B8: 7C07 (antibody, human IgG1, V domains shown)
# VH: EVQLLESGGGLVQPGGSLRLSCAASGFTFSSYGMHWVRQAPGKGLEWVAVISYDGSNKYYADSVKGRFTISRDNSQNTLYLQMNSLRAEDTAVYYCAREFGYIILDYWGQGTLVTVSS
# VL: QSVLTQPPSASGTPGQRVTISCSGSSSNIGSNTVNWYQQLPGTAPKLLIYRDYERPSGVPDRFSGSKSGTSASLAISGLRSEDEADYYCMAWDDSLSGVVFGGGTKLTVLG
# notes: Antagonistic hFcγRIIB mAb, human IgG1 (WT); Only VH/VL tied to the clone; also called Antibody clone: 7C07
# B9: 1C04 (antibody, human IgG1, V domains shown)
# VH: EVQLLESGGGLVQPGGSLRLSCAASGFTFSSYAMSWVRQAPGKGLEWVSSISDSGAGRYYADSVEGRFTISRDNSKNTLYLQMNSLRAEDTAVYYCARTHDSGELLDAFDIWGQGTLVTVSS
# VL: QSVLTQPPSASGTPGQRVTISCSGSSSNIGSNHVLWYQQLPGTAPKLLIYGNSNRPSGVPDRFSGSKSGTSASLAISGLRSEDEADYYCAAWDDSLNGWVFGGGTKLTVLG
# notes: Only VH/VL tied to the clone; also called Antibody clone: 1C04
# B10: 2A09 (antibody, human IgG1, V domains shown)
# VH: EVQLLESGGGLVQPGGSLRLSCAASGFTFSNAWMSWVRQAPGKGLEWVAYISRDADITHYPASVKGRFTISRDNSKNTLYLQMNSLRAEDTAVYYCTTGFDYAGDDAFDIWGQGTLVTVSS
# VL: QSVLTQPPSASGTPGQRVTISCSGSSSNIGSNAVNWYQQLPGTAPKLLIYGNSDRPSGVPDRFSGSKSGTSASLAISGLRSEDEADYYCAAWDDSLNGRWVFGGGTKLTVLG
# notes: Only VH/VL tied to the clone; also called Antibody clone: 2A09
# Columns and labels:
# human FcγRIIA on cells [1] = biological target: T1, human FcγRIIA on cells; assay: flow cytometry on human PBMC populations, MFI; monocytes and neutrophils read as hFcγRIIA-bearing as in the legend
# human FcγRIIB on cells [2] = biological target: T2, human FcγRIIB on cells; assay: flow cytometry, mAb at 0.1, 1 and 10 µg/ml on B cells, MFI
# human FcγRIIA on cells [3] = biological target: T1, human FcγRIIA on cells; assay: not specified (summary in the discussion)
# [4] = biological target: T3, Soluble hFcγRIIB (R & D Systems); assay: SPR (Biacore T100), mAb immobilised on CM5, soluble hFcγRIIB injected, 1:1 model
# Protocol: (§1) A BIAcore T100 analyzer (GE Healthcare, UK) was used to determine the binding affinity of the hFcγRIIB mAb, as described elsewhere.²⁵ mAb were immobilized onto a CM5 sensorchip (GE Healthcare, UK), using standard amine coupling according to the manufacturer's instructions. Soluble hFcγRIIB (0.16-100 nM; R & D Systems, UK) was injected for 5 minutes and dissociation monitored for 10 minutes. Background binding to the control flow cell was monitored and subtracted automatically. The KD values were calculated from the 1:1 binding model using the BIAcore T100 Evaluation software.
# [5] = biological target: T3, Soluble hFcγRIIB (R & D Systems); assay: SPR, mAb immobilised, soluble hFcγRIIB injected
# Protocol: as §1
# [6] = biological target: T3, Soluble hFcγRIIB (R & D Systems); assay: SPR, mAb immobilised, soluble hFcγRIIB injected; column headed KD (1/s)
# Protocol: as §1
# [7] = biological target: T3, Soluble hFcγRIIB (R & D Systems); assay: SPR, mAb immobilised, soluble hFcγRIIB injected; column headed KA (1/MS)
# Protocol: as §1
# [8] = biological target: T3, Soluble hFcγRIIB (R & D Systems); assay: SPR (Biacore T100), mAb immobilised on CM5, soluble hFcγRIIB injected, 1:1 model; column headed KD (1/s)
# Protocol: as §1
# [9] = biological target: T3, Soluble hFcγRIIB (R & D Systems); assay: SPR (Biacore T100), mAb immobilised on CM5, soluble hFcγRIIB injected, 1:1 model; column headed KA (1/MS)
# Protocol: as §1
# [10] = biological target: T4, cynomolgus monkey FcγRIIB; assay: IHC on frozen tissue sections
# mouse FcγRIIB = biological target: T5, mouse FcγRIIB; assay: IHC on frozen tissue sections
# rat FcγRIIB = biological target: T6, rat FcγRIIB; assay: IHC on frozen tissue sections
# human FcγRIIA on cells [11] = biological target: T1, human FcγRIIA on cells; assay: binding to FcγRIIA-transfected CHO-k1 cells
# human FcγRIIB on cells [12] = biological target: T2, human FcγRIIB on cells; assay: binding to hFcγRIIB-transfected cells, total fluorescence intensity against mAb concentration [2/2) bottom]
# human FcγRIIB on cells [13] = biological target: T2, human FcγRIIB on cells; assay: inhibition of binding of IC to hFcγRIIB-transfected cells by the mAb [2/2) bottom]
# [14] = biological target: T3, Soluble hFcγRIIB (R & D Systems); assay: SPR, mAb immobilised, soluble hFcγRIIB injected; column headed KD (1/s); Table 2 gives the same values for 6G08
# Protocol: as §1
# [15] = biological target: T3, Soluble hFcγRIIB (R & D Systems); assay: SPR, mAb immobilised, soluble hFcγRIIB injected; Table 2 gives the same values for 6G08
# Protocol: as §1
# human FcγRIIA on cells [16] = biological target: T1, human FcγRIIA on cells; assay: binding to FcγRIIA-transfected CHO-k1 cells; remark: listed apart in the source
Binder,binding result (human FcγRIIB on cells [2]),Kd [4] [nM],Kd [5] [nM],koff [6] [s⁻¹],kon [7] [M⁻¹ s⁻¹],koff [8] [s⁻¹],kon [9] [M⁻¹ s⁻¹],also measured
B1,,,,,,,,binding result (human FcγRIIA on cells [1]): binds
B2,no binding (tested: 10 µg/ml),,,,,,,
B3,,26.4,26.4,0.182,6.9e+06,0.182,6.9e+06,binding result (human FcγRIIA on cells [3]): no binding; binding result [10]: no binding; binding result (mouse FcγRIIB): no binding; binding result (rat FcγRIIB): no binding
B4,,713,,,,0.337,472000,binding result (human FcγRIIA on cells [11]): no binding
B5,,142,142,0.0481,324000,0.0481,324000,EC50 (read off the curve) (human FcγRIIB on cells [12]): ~0.4 nM; IC50 (read off the curve) (human FcγRIIB on cells [13]): ~0.6 nM
B6,,,,,,,,koff [14]: 0.337 s⁻¹; Kd [15]: 713 nM; binding result (human FcγRIIA on cells [11]): no binding
B7,,2210,2210,0.00177,802,0.00177,802,binding result (human FcγRIIA on cells [16]): no binding
B8,,23.9,23.9,0.0185,913000,0.0185,913000,binding result [10]: no binding; binding result (mouse FcγRIIB): no binding; binding result (rat FcγRIIB): no binding
B9,no binding (tested: 10 µg/ml),,,,,,,
B10,no binding (tested: 10 µg/ml),,,,,,,

# — patent publication US20170107293A1 (BIOINVENT INTERNATIONAL, published 2017)
